Earlier results on one substance are cited in publication PMC8093553.

The target in this data set is transferrin receptor (Homo sapiens) (UniProt P02786).
transferrin receptor (Homo sapiens), sequence (P02786 101-760): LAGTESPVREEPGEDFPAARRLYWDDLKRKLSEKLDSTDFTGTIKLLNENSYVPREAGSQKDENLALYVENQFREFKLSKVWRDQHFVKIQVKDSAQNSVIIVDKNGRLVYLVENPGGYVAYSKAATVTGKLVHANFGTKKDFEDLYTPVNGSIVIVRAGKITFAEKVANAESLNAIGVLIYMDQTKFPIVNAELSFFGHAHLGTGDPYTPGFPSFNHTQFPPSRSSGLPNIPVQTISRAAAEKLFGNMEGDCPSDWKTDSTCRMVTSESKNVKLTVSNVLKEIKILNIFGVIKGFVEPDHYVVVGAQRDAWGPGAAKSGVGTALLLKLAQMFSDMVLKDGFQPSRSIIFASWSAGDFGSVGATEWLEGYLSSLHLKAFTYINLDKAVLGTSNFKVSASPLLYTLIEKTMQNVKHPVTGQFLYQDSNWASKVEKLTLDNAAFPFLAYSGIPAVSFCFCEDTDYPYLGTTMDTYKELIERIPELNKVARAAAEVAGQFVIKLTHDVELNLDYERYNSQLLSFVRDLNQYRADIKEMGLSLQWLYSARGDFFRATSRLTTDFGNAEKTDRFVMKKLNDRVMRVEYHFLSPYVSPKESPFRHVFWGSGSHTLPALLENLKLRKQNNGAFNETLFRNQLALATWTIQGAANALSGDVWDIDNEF

In the case of T7 peptide, the dissociation constant Kd was 10 nM.

The term Kd denotes the constant that tells how readily two partners part at equilibrium.
